These results are taken from publication PMC6294562.

This series has as its target thrombin (alpha-thrombin) (UniProt P00734;P00734 328-363;364-622). As to the kind of experiment: X-ray crystallography.

B1: NU172 (ARC2172) (structured_DNA)
DNA: CGCCTAGGTTGGGTAGGGTGGTGGCG
As to B1, the binding result is “binds”.
